First the molecules themselves.
B1: CDKL4 (parent)
chain: AVKKFVESEDDPVVKKIALREIRM
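Also: lentivirally expressed fusions sorted by FACS into six bins by GFP to DsRed ratio, PSI derived from sequencing read proportions per bin multiplied by bin number.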

Variants of B1 are the subject of the data set. Briefly: protein stability index of a GFP-peptide fusion (GPS, HEK-293T) (PSI 1-6); higher = more stable. Conditions: c terminus: a fixed tail appended.
As to AVKKFVESEDDPQVKKIALREIRM, the protein stability index amounted to 3.47.
Consider AVKKFVESEDDPFVKKIALREIRM, for which the protein stability index is 2.5.
The value for AVKKFVESEDDPHVKKIALREIRM was 3.11; that for AVKKFVESEDDPRVKKIALREIRM was 3.08; that for AVKKFVESEDDPKVKKIALREIRM was 3.27.
Take AVKKFVESEDDPTVKKIALREIRM: the protein stability index was 3.77.
As for AVKKFVENEDDPVVKKIALREIRM, the protein stability index was 3.32.
Under AVKKFVEWEDDPVVKKIALREIRM stands 2.24; under AVKKFVELEDDPVVKKIALREIRM, 1.91.
As for AVKKFVEREDDPVVKKIALREIRM, the protein stability index was 2.43.
Under AVKKFVEIEDDPVVKKIALREIRM stands 2.54.
On to AVKKFVEDEDDPVVKKIALREIRM, for which the protein stability index amounted to 3.12.
With AVKKFVETEDDPVVKKIALREIRM, the protein stability index was 3.14.
In the case of AVKKFVESEDDPVVKKIALREIRC, the protein stability index was determined as 2.76.
For AVKKFVESEDDPVVKKIALREIRT, the protein stability index is 3.15.
As for AVKKFVESEDDPVVKKIALREIRL, the protein stability index is 2.74.
On to AVKKFVESEDDPVVKKIALREIRG, for which the protein stability index was found to be 3.07.
The value for AVKKFVESEDDPVVKKIALREIRV was 3.36.
The value for AVKKFVESEDDPVVKKIALREIRQ was 3.92.
In the case of AVKKFVESEDDPVVKKIALREIRR, the protein stability index was 3.23.
As to AVKKFVESEDDPVVKKIALREIRH, the protein stability index is 3.59.
AVKKFVESEDDPVVKKIALREIRP: the protein stability index is 3.43.
The value for AVKKFVESEDDPVVKKIALREIRE was 3.41; that for AVKKFVESADDPVVKKIALREIRM was 2.4; that for AVKKFVESFDDPVVKKIALREIRM was 2.09.
Take AVKKFVESLDDPVVKKIALREIRM: the protein stability index was 1.64.
As for AVKKFVESSDDPVVKKIALREIRM, the protein stability index is 2.97.
In the case of AVKKFVESDDDPVVKKIALREIRM, the protein stability index came to 2.69.
With AVKKFVESEDDPVVKKIARREIRM, the protein stability index was 2.96.
Under AVKKFVESEDDPVVKKIAVREIRM stands 3.47.
Under AVKKFVESEDDPVVKKIAPREIRM stands 4.24.
With AVKKFVESEDDPVVKKIATREIRM, the protein stability index turned out to be 4.34.
The value for AVKKFVESEDDPVVKKIASREIRM was 4.41; that for AVKKFVESEDDPVVKKIANREIRM was 3.86.
Under AVKKFVESEDDPVVKKIAGREIRM stands 4.26; under AVKKFVESEDDPVVKKIAEREIRM, 4.76; under AVKKFVESEDDPVVKKIAFREIRM, 2.09.
As to AVKKFVESEDDPVVKKIACREIRM, the protein stability index was determined as 4.26.
The value for AVKKFVESEDDPVVKKIAYREIRM was 3.41; that for AVKKFSESEDDPVVKKIALREIRM was 3.17.
For the variant AVKKFGESEDDPVVKKIALREIRM, the protein stability index was 3.33.
In the case of AVKKFQESEDDPVVKKIALREIRM, the protein stability index is 3.42.
Under AVKKFHESEDDPVVKKIALREIRM stands 3.08; under AVKKFYESEDDPVVKKIALREIRM, 2.57.
AVKKFNESEDDPVVKKIALREIRM: the protein stability index is 3.6.
On to AVKKFFESEDDPVVKKIALREIRM, for which the protein stability index was found to be 2.1.
With AVKKFRESEDDPVVKKIALREIRM, the protein stability index was found to be 2.48.
The value for AVKKFKESEDDPVVKKIALREIRM was 3.26; that for AVKKFLESEDDPVVKKIALREIRM was 3.23; that for AVKKFCESEDDPVVKKIALREIRM was 2.82.
Turning to AVKKFVESEDDPVVMKIALREIRM, the protein stability index was 1.87.
The value for AVKKFVESEDDPVVLKIALREIRM was 1.95; that for AVKKFVESEDDPVVFKIALREIRM was 2.58; that for AVKKFVESEDDPVVCKIALREIRM was 2.52.
As to AVKKFVESEDDPVVSKIALREIRM, the protein stability index was found to be 2.59.
Take AVKKFVESEDDPVVDKIALREIRM: the protein stability index is 3.59.
Consider AVKKFVESEDDPVVKKIALRWIRM, for which the protein stability index turned out to be 3.91.
For the variant AVKKFVESEDDPVVKKIALRAIRM, the protein stability index was determined as 2.42.
AVKKFVESEDDPVVKKIALRTIRM: the protein stability index came out at 2.4.
The value for AVKKFVESEDDPVVKKIALRQIRM was 2.45; that for AVKKFVESEDDPVVKKIALRKIRM was 2.48; that for AVKKFVESEDDPVVKKIALRLIRM was 2.69.
As to AVKKFVESEDDPVVKKIALRSIRM, the protein stability index is 2.35.
For the variant AVKKFVESEDDPVVKKIALRYIRM, the protein stability index was 2.69.
In the case of AVKKFVESEDDPVVKKIALRHIRM, the protein stability index was found to be 2.95.
AVFKFVESEDDPVVKKIALREIRM: the protein stability index was 1.76.
Under AVWKFVESEDDPVVKKIALREIRM stands 2.35; under AVMKFVESEDDPVVKKIALREIRM, 2.28.
As to AVPKFVESEDDPVVKKIALREIRM, the protein stability index was found to be 3.02.
AVAKFVESEDDPVVKKIALREIRM: the protein stability index was determined as 2.83.
Under AVYKFVESEDDPVVKKIALREIRM stands 2.28; under AVKKFVESEDKPVVKKIALREIRM, 3.22; under AVKKFVESEDCPVVKKIALREIRM, 2.16.
Take AVKKFVESEDHPVVKKIALREIRM: the protein stability index came out at 2.96.
For AVKKFVESEDSPVVKKIALREIRM, the protein stability index amounted to 2.87.
Turning to AVKKFVESEDRPVVKKIALREIRM, the protein stability index stood at 2.61.
Consider AVKKFVESEDEPVVKKIALREIRM, for which the protein stability index is 3.15.
Turning to AVKKFVESEDLPVVKKIALREIRM, the protein stability index is 1.81.
Turning to AVKKFVESEDYPVVKKIALREIRM, the protein stability index was determined as 2.46.
Under AVKKFVESEDMPVVKKIALREIRM stands 2.44; under AVKKFVESEDFPVVKKIALREIRM, 2.25.
AVKKFVESEDVPVVKKIALREIRM: the protein stability index was 2.44.
As for AFKKFVESEDDPVVKKIALREIRM, the protein stability index was 2.52.
With ANKKFVESEDDPVVKKIALREIRM, the protein stability index came out at 3.63.
Consider ALKKFVESEDDPVVKKIALREIRM, for which the protein stability index worked out at 3.7.
Regarding APKKFVESEDDPVVKKIALREIRM, the protein stability index is 3.74.
AMKKFVESEDDPVVKKIALREIRM: the protein stability index is 2.79.
Take ARKKFVESEDDPVVKKIALREIRM: the protein stability index was determined as 2.85.
The value for AKKKFVESEDDPVVKKIALREIRM was 3.55; that for ATKKFVESEDDPVVKKIALREIRM was 3.35.
The value for AVKKFVESEDDPVVKKIALREPRM was 4.54; that for AVKKFVESEDDPVVKKIALRESRM was 3.97.
The value for AVKKFVESEDDPVVKKIALREHRM was 4.06; that for AVKKFVESEDDPVVKKIALREMRM was 3.29.

These data come from the supplement of paper PMC10567573.
